From the supplement of paper PMC12042874
± gives the uncertainty stated by the source.

assay: amyloid nucleation score (Sup35N fusion, yeast selection) (log enrichment); library NNK2; higher = more nucleation; inactive = no reads after selection
Summary of the method: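 Output and input plasmid inserts were sequenced by Illumina after psi-negative yeast carrying Sup35N fused to peptides of 20 random codons had been induced 24 hours with 100 μM copper sulfate and grown 7 days at 30°C on medium lacking adenine and uracil. The nucleation score is the DiMSum log enrichment of output over input reads, centred on the mode score of non-aggregating sequences. Sequences with under 100 input reads were excluded.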

Point of comparison: TCSRDVFGWTVLGTGLPPLR, amyloid nucleation score 0.878 ± 0.32. Against it:
- SVDIKIFLQPAYFCNATAAV — higher, 6.435 ± 0.039
- SVDRNNTYLYRLKYAFWAMG — higher, 6.644 ± 0.043
- SVFYHLYSHWIFIVCTNTRR — lower, -0.414 ± 0.43
- SVGGETITRWKCIWMTRRTE — higher, 1.77 ± 0.16
- SVKIWCFIWEFPCFMLFRAL — within error, -0.168 ± 1.1
- SVLIAQLDAAYGISVVRSPG — lower, 0.264 ± 0.18
- SVLVVPVT — within error, 0.182 ± 0.79
- SVMIWIIASNIDILSVVFRL — lower, -0.573 ± 1.1
- SVNWSFRSMNIFH — higher, 3.45 ± 0.055
- SVRFPITVMFRFSRWFTETY — lower, -0.264 ± 0.37
- SVSGIGWFGGEQHAWS — lower, -0.531 ± 0.79
- SVSGTLFPGYCWGNGKAGHF — higher, 1.56 ± 0.091
- SVTRWEHAMAVPKKLLHSGR — within error, 1.05 ± 0.23
- SVVEEKIGEFTWSWDTDSAN — within error, 0.568 ± 0.66
- SVVFLRLGYGKLRV — within error, -0.159 ± 1
- SVVVDIKGVDWVVRVLVGKR — lower, -0.484 ± 0.65
- SVYDTKHLLNLLDSAVISNH — lower, -0.481 ± 0.76
- SWCFVNGWWLYESAWEVMDS — within error, -0.199 ± 1.1
- SWGFI — lower, -2.19 ± 0.62
- SWITPMRHLFSNHSLGLNAY — lower, -0.298 ± 0.43
- SWSRYGCGVYSDVGVTLLQF — within error, 0.201 ± 0.63
- SWTCFTLVVRRTAGYWVWSA — within error, 0.331 ± 0.33
- SWTCHGGNLYS — within error, 0.222 ± 0.8
- SWTHRAGYIKRMSE — lower, -0.212 ± 0.55
- SYCHCASGPFSLNPYSLLVC — within error, 0.716 ± 0.66
- SYDVRVAKINSPLGG — lower, -0.397 ± 0.79
- SYFEMAYEWYCMNWMGEVIK — higher, 9.197 ± 0.054
- SYFSVKHDRR — lower, -0.228 ± 0.35
- SYFWRYFM — within error, 0.087 ± 0.79
- SYFYPCLRNLYLPLWWRSHS — lower, -0.515 ± 0.38
- SYGHDWVGKGKVGGIRLM — lower, -0.904 ± 0.49
- SYGLRSC — within error, 0.174 ± 0.63
- SYHFQDLW — lower, -0.461 ± 0.25
- SYHVVCFVYVLVTFLLWCSH — higher, 2.22 ± 0.14
- SYILEFFHWIRSRLEYYGY — lower, -1.5 ± 0.76
- SYNTHQLSRSPF — lower, -0.131 ± 0.23
- SYRNLDKTIRSDKLQVNLGI — lower, -1.57 ± 1.1
- SYSDPETFISWVLVDWCLMS — lower, -0.753 ± 0.55
- SYSYFLELVSYKFSVVFLSI — within error, 0.715 ± 0.58
- SYVCRYITVPGFDTN — higher, 4.76 ± 0.08
- SYVEHTMILDMRPTCHTLPH — higher, 5.08 ± 0.11
- SYYMISY — higher, 2.05 ± 0.12
- TAAGLFISNNHMNYFDAIAY — lower, -1.09 ± 0.78
- TASFK — within error, -0.014 ± 0.76
- TASPSILTSKVTRYNLTVGC — lower, -0.072 ± 0.5
- TCAGIV — within error, 0.408 ± 0.41
- TCFHR — within error, 0.285 ± 0.55
- TCLSRVPPS — lower, -0.797 ± 0.61
- TCRQSEATLLVLEYVRESCS — within error, 0.809 ± 0.3
- TCVCDIYSSTVVSFLHSNRV — higher, 5.44 ± 0.1
- TDLIINMSQNR — higher, 2.42 ± 0.1
- TDQDT — within error, 0.516 ± 0.32
- TDYHMFYRLDCLPLTTTCPV — higher, 4.88 ± 0.087
- TEDDCGK — within error, 0.975 ± 0.17
- TEGRVDPLCDERAILMVFDV — within error, 0.768 ± 0.5
- TFDRCPNNSGNDMTNGPESW — within error, 1.21 ± 0.096
- TFDVTRI — lower, -0.311 ± 0.33
- TFFYMRFPGFLFSNSSNAW — higher, 1.47 ± 0.24
- TFGESSIVNNPYFLHESGHS — within error, 0.813 ± 0.48
- TFGTSFKYFMSWLIDRCCYL — lower, -0.836 ± 1.1
- TFIAMSQALMTVYIGALLQW — higher, 3.57 ± 0.061
- TFKMSGINPTD — lower, -1.19 ± 0.3
- TFMAIRSLNSSASGWATGF — higher, 3.01 ± 0.049
- TFTVKCTDGGSCF — within error, 1.01 ± 0.24
- TFYRACALTLMRDQTDSWYC — higher, 4.35 ± 0.091
- TFYYTAECWAWRNMQESSHT — lower, 0.054 ± 0.32
- TGCVKGYSSRWWESFYGGTR — lower, -0.762 ± 0.79
- TGELSAQHKASTYYCYCWLF — higher, 4.43 ± 0.076
- TGFQLVNWSNIGLWNNLYGR — higher, 5.49 ± 0.065
- TGHKFPLRGSMRVVLDFFSR — higher, 3.09 ± 0.089
- TGLTH — lower, -0.737 ± 0.54
- TGMQMFMVVWLGQLDRSDTI — within error, 1.07 ± 0.28
- TGNTFIPSLFICRIEGSTSA — within error, 0.506 ± 0.44
- TGPIWLCYACAWTNTYTPAE — higher, 9.357 ± 0.055
- TGQSKDNQDSNMGVICLFYS — higher, 4.389 ± 0.04
- TGRGAHFHRI — lower, -0.24 ± 0.42
- TGRHKVTDLRIWILWSYTGA — lower, -0.398 ± 0.63
- TGRLSIVAKNYWGHSVRAFS — within error, 0.001 ± 0.76
- THEIFMHSYY — lower, -0.913 ± 1.1
- THFPLHV — lower, -0.388 ± 0.37
- THNLAEGQGKDCVQSLDRMG — within error, 0.22 ± 0.38
- THSRRLRLNAKMCLHFLWYR — lower, -0.115 ± 0.2
- TIDWTMSHCMI — lower, -0.055 ± 0.56
- TIFFMGM — higher, 3.65 ± 0.07
- TILDIVLIIPAKVVHKEERR — lower, -0.093 ± 0.41
- TILVTKG — higher, 4.89 ± 0.11
- TIRRVRSALQQHM — lower, 0.041 ± 0.49
- TIRSCVNF — higher, 1.41 ± 0.1
- TISDTCHESRLDVMRNVPYM — higher, 5.091 ± 0.043
- TISLDM — lower, -0.033 ± 0.25
- TITHLSNACTYMVDIRSFTF — higher, 5.38 ± 0.068
- TKATRINEGLLNLYALFGGK — within error, 0.974 ± 0.17
- TKRAIDWA — within error, 0.669 ± 0.8
- TKRHE — within error, 0.987 ± 0.58
- TKTILRILSQFIYDSPLLEM — within error, -0.19 ± 1.1
- TKVQERLGHF — within error, 1.46 ± 0.58
- TLCWLYLWVYRCKDYEELTC — lower, -0.167 ± 0.63
- TLDVGLGAAQCVIGISGWYE — within error, 1.1 ± 0.15
- TLFIMC — within error, 0.074 ± 0.54
- TLFLRMVSLHFKSVVLWNWF — within error, 0.213 ± 0.8
- TLFQFWKYLVSTTCIML — higher, 3.18 ± 0.11
- TLGGSSTFRY — lower, -0.152 ± 0.45
- TLGMYFFVSMLSLLVSVNGF — within error, -0.427 ± 1.1
- TLGVSRNLALSTEARTLRPY — lower, -0.041 ± 0.42
- TLLFHTRSYVYICVLVWKQH — within error, 0.049 ± 0.8
- TLLSASYGV — lower, -0.742 ± 0.79
- TLLWSRTMYVGIPSYRYGGA — within error, 0.676 ± 0.8
- TLMDLNNHPTYGYLLVPTVD — lower, -0.307 ± 0.79
- TLMFVKNFDVRCEWEASFTM — higher, 5.37 ± 0.077
- TLRSETMSDWYSRLHGFVFK — within error, 0.988 ± 0.52
- TLVRSVQLCCGISAWNMEAR — higher, 11.43 ± 0.031
- TLYFYFRLSW — within error, 0.276 ± 0.8
- TMLTFG — lower, -0.913 ± 0.76
- TMRFLVGFCLTNWDNLNASC — higher, 3.67 ± 0.05
- TMSQYLGNRCTTNGYSFGVS — within error, -0.272 ± 1.1
- TMYFWLMSLVWLLSVSFRAW — higher, 2.54 ± 0.1
- TNISMLNDVGEGCFGERSLV — lower, -0.291 ± 0.54
- TNQGFLWVSPLILTRCGDRQ — higher, 6.68 ± 0.079
- TNTLMGPFWLSWSNVQPNRS — lower, -0.787 ± 0.54
- TNWGNAVSSAMRLGSL — within error, 0.438 ± 0.28
- TPCIMWKLGLFFVDCCFGFP — higher, 4.1 ± 0.12
- TPDVLGLRHYRLTIVTYH — within error, 1.22 ± 0.31
- TPSECRCWEEFHGWTHLLRL — within error, 0.461 ± 0.48
- TPSRFWPMLFSVNLWLRGWL — within error, 0.017 ± 0.62
- TPTWESNQVL — within error, 0.502 ± 0.65
- TPVSCFTCRQCLVTGLHTLR — within error, 0.466 ± 0.26
- TPVYPRRSIVLICSISMLRK — higher, 4.12 ± 0.064
- TQINEVLL — lower, -0.722 ± 0.28
- TQLIVMCHFVVHRRVKWRI — within error, 0.786 ± 0.3
- TQLSV — within error, -0.046 ± 1
- TRAFLIIRYVKLDTNFVI — higher, 2.19 ± 0.064
- TRALDPVSVSRISVRQQPLA — within error, 1.12 ± 0.2
- TRAPGRDFVGEGEACALDET — lower, -0.799 ± 0.54
- TRCKHDDVW — within error, 1.5 ± 0.33
- TRGCFAVSSKYMLSYVGLNR — lower, -0.021 ± 0.21
- TRLVWIFLSPM — lower, -0.169 ± 0.25
- TRNSFRSSLWVLRGGCV — lower, -0.523 ± 0.37
- TRPRVKPWAMFRNIYD — lower, -1.33 ± 0.44
- TRRCIERNRNVLFFTFMCRL — within error, 1.41 ± 0.27
- TRSYQLLLVSLVAGNFVE — higher, 1.5 ± 0.27
- TRTQMW — within error, 0.739 ± 0.43
- TRVFTSWFVV — within error, 0.342 ± 0.65
- TRVNNGSTVHNKMLTS — within error, 0.634 ± 0.74
- TSANLLLYRVLKSFLARQHQ — lower, 0.062 ± 0.46
- TSIMPDSFFRSLKVSF — lower, -0.249 ± 0.56
- TSRKTEFQPFAGSICLYMGI — within error, 0.18 ± 0.63
- TSRML — within error, 0.67 ± 0.39
- TSRRL — higher, 2.1 ± 0.13
- TTDCSNDLSAILVCLSHGAL — within error, -0.19 ± 1
- TTLRCHLIESKWGYVRRLTW — higher, 4.33 ± 0.088

For SVFGTLFDYGRRSTTFNGLK, the amyloid nucleation score was “inactive”.
For SVFKMNEGFGNEHSNAPMRG, the amyloid nucleation score was “inactive”.
For SVFYIYWRSWLFFRSLGLFI, the amyloid nucleation score was “inactive”.
In the case of SVYCSNNNTFDAFYVEWVFA, the amyloid nucleation score is reported as “inactive”.
With SYDDVVILDFYDGIL the amyloid nucleation score was “inactive”.
For SYFMRDSTN, the amyloid nucleation score was “inactive”.
With SYLLSRYLRPKGYADNIVYA the amyloid nucleation score was “inactive”.
For TDITKVSGTFNHSMEPIWYT, the amyloid nucleation score was “inactive”.
In the case of TETTVFILLFWLLVILGRVH, the amyloid nucleation score is reported as “inactive”.
For TFFNNWMALKYRNYQFIMSG, the amyloid nucleation score was “inactive”.
With TGKFL the amyloid nucleation score was “inactive”.
For TGPGSFFRRSGDTHLYSRDG, the amyloid nucleation score was “inactive”.
In the case of TKICMASHATVFALYVYCSL, the amyloid nucleation score is reported as “inactive”.
In the case of TLASRTNF, the amyloid nucleation score is reported as “inactive”.
With TLYYIVRHQICANFYRMYNG the amyloid nucleation score was “inactive”.
In the case of TMFLYSNAEDFF, the amyloid nucleation score is reported as “inactive”.
In the case of TNAIYRGVLGSMDQGT, the amyloid nucleation score is reported as “inactive”.
For TNSALGSMVYELGRPLVWFF, the amyloid nucleation score was “inactive”.
For TPGCF, the amyloid nucleation score was “inactive”.
With TPNNYLYTSFVAY the amyloid nucleation score was “inactive”.
In the case of TRLCRNLAASPGFLWTVYKS, the amyloid nucleation score is reported as “inactive”.
In the case of TRYMFMVTKLPGPGGCSVNE, the amyloid nucleation score is reported as “inactive”.
